B1: FEL_09E09_1.1 (antibody)
heavy: DVQLVESGGDLVKPGGSLRLTCVASGFTYSSYAMSWVRQAPGKGLQWVAYISSGGDYIYYADTVKGRFTISRDNAKNTLYLQMNSLKTEDTATYYCVRDPITGTFAYWGQGTLVTVSSASTTAPSVFPLAPSCGTTSGATVALACLVLGYFPEPVTVSWNSGALTSGVHTFPAVLQASGLYSLSSMVTVPSSRWLSDTFTCNVAHPPSNTKVDKTVRKTDHPPGPKPCDCPKCPPPEAAGAPSIFIFPPKPKDTLSISRTPEVTCLVVDLGPDDSDVQITWFVDNTQVYTAKTSPREEQFNSTYRVVSVLPILHQDWLKGKEFKCKVNSKSLPSPIERTISKAKGQPHEPQVYVLPPAQEELSRNKVSVTCLIKSFHPPDIAVEWEITGQPEPENNYRTTPPQLDSDGTYFVYSKLSVDRSHWQRGNTYTCSVSHEALHSHHTQKSLTQSPGK
light: EIQMTQSPSSLSASPGDRVTITCRASQDINNYLNWYQQKPGKVPKLLIYYTSTLHSGVPSRFSGSGSGTDFTLTISSLEPEDAATYYCQQGNTLPWTFGQGTRSDAQPSVFLFQPSLDELHTGSASIVCILNDFYPKEVNVKWKVDGVVQNKGIQESTTEQNSKDSTYSLSSTLTMSSTEYQSHEKFSCEVTHKSLASTLVKSFQRSECQRE
B2: FEL_10F07_1.2 (antibody)
heavy: B1 heavy with I58F
light: DITMTQSPGSLAGSPGQQVTMNCRASQDITNYLNWYQQKPGQHPKLLIYYTSTLHSGVPDRFSGSGSGTDFTLTISNLQAEDVASYYCQQGHMLPWTFGQGTRSDAQPSVFLFQPSLDELHTGSASIVCILNDFYPKEVNVKWKVDGVVQNKGIQESTTEQNSKDSTYSLSSTLTMSSTEYQSHEKFSCEVTHKSLASTLVKSFQRSECQRE
B3: FEL_10F07_2.1 (antibody)
heavy: B1 heavy with Y29F, I58F, N74D, N84S, V97T, R98G
light: B1 light with N30T, N92H, T93M
B4: Mu_09E09_VH (SEQ ID NO: 35)_S35A (antibody, V domains shown)
VH: DVKLVESGEGLVKPGGSLKLSCAASGFTFSSYAMAWVRQTPEKRLEWVAYISSGGDYIYYADTVKGRFTISRDNARNTLYLQMSSLKSEDTAMYYCTRDPITGTFAYWGQGTLVTVSA
VL: DLQMTQTTSSLSASLGDRVTISCRASQDINNYLNWYQQKPDGTVKLLIYYTSTLHSGVPSRFSGSGSGTDYSLTISNLEQEDIATYFCQQGNTLPWTFGGGTKLEIKR
B5: Mu_02D09_VH (SEQ ID NO: 31)_G33A (antibody, V domains shown)
VH: EVQLVESGGGLVKPGGSLTLSCAASGFTFSDYAMHWLRQAPEKGLEWVAYISSGSRAVFFADTVKGRFTISRDNAKNTLFLQMTSLRSDDTAMYYCARDRYDGRGFAYWGQGTLVTVSA
VL: DIVLTQSPATLSVTPGDSVSLSCRASQSISNNLHWYQQTSHESPRLLITYASQSISGIPSRFSGSGSGTDFTLSINSVETEDFGMYFCQQSNSWPLTFGAGTKLELKR
B6: Mu_02D09_VH (SEQ ID NO: 31)_R104A (antibody, V domains shown)
VH: B5 VH with A33G, R104A
VL: B5 VL
B7: Mu_02D09_VH (SEQ ID NO: 31)_D62A (antibody, V domains shown)
VH: B5 VH with A33G, D62A
VL: B5 VL
B8: Mu_02D09_VH (SEQ ID NO: 31)_D99A (antibody, V domains shown)
VH: B5 VH with A33G, D99A
VL: B5 VL
B9: Mu_02D09_VL (SEQ ID NO: 33)_W94A (antibody, V domains shown)
VH: B5 VH with A33G
VL: B5 VL with W94A
B10: Mu_02D09_VL (SEQ ID NO: 33)_I29A (antibody, V domains shown)
VH: B5 VH with A33G
VL: B5 VL with I29A
B11: Mu_02D09_VL (SEQ ID NO: 33)_L96A (antibody, V domains shown)
VH: B5 VH with A33G
VL: B5 VL with L96A
B12: Mu_02D09_VH (SEQ ID NO: 31)_H35A (antibody, V domains shown)
VH: B5 VH with A33G, H35A
VL: B5 VL
B13: Mu_02D09_VH (SEQ ID NO: 31)_D102A (antibody, V domains shown)
VH: B5 VH with A33G, D102A
VL: B5 VL
B14: Mu_02D09_VH (SEQ ID NO: 31)_S52A (antibody, V domains shown)
VH: B5 VH with A33G, S52A
VL: B5 VL
B15: Mu_02D09_VH (SEQ ID NO: 31)_Y50A (antibody, V domains shown)
VH: B5 VH with A33G, Y50A
VL: B5 VL
B16: Mu_02D09_VH (SEQ ID NO: 31)_Y101A (antibody, V domains shown)
VH: B5 VH with A33G, Y101A
VL: B5 VL
B17: Mu_19F07_VH (SEQ ID NO: 47)_S56A (antibody, V domains shown)
VH: EVKLVESEGGLVQPGSSMKLSCTASGFTFSDYYMAWVRQVPEKGLEWVANINYDGASTYYLDSLKSRFIISRDNAKNILYLQMSSLKSEDTATYYCARGLTWDFDVWGTGTTVTVSS
VL: DIVMTQSHKFMSPSVGDRVSITCKASQDVDTAVAWYQQKPGQSPKLLIYLASTRHTGVPDRFTGSGSGTDFTLTISNVQSEDLADYFCQQYSRFPLTFGAGTKLELKR
B18: Mu_19F07_VH (SEQ ID NO: 47)_Y60A (antibody, V domains shown)
VH: B17 VH with A56S, Y60A
VL: B17 VL
B19: Mu_19F07_VH (SEQ ID NO: 47)_W102A (antibody, V domains shown)
VH: B17 VH with A56S, W102A
VL: B17 VL
B20: Mu_09E09_VH (SEQ ID NO: 35)_Y59A (antibody, V domains shown)
VH: B4 VH with A35S, Y59A
VL: B4 VL
B21: Mu_09E09_VH (SEQ ID NO: 35)_I101A (antibody, V domains shown)
VH: B4 VH with A35S, I101A
VL: B4 VL
B22: Mu_09E09_VL (SEQ ID NO: 37)_W96A (antibody, V domains shown)
VH: B4 VH with A35S
VL: B4 VL with W96A
B23: Mu_09E09_VL (SEQ ID NO: 37)_Y50A (antibody, V domains shown)
VH: B4 VH with A35S
VL: B4 VL with Y50A
B24: Mu_09E09_VL (SEQ ID NO: 37)_N92A (antibody, V domains shown)
VH: B4 VH with A35S
VL: B4 VL with N92A
B25: Mu_09E09_VL (SEQ ID NO: 37)_Q90A (antibody, V domains shown)
VH: B4 VH with A35S
VL: B4 VL with Q90A

From US20220177594A1 come the findings set out here.

Where a chain is given by its changes, count along the chain named.

Sequence of Canine_OSMR_hlgG1_Fc (canine) (chain, as listed by the source limits assumed, form in doubt): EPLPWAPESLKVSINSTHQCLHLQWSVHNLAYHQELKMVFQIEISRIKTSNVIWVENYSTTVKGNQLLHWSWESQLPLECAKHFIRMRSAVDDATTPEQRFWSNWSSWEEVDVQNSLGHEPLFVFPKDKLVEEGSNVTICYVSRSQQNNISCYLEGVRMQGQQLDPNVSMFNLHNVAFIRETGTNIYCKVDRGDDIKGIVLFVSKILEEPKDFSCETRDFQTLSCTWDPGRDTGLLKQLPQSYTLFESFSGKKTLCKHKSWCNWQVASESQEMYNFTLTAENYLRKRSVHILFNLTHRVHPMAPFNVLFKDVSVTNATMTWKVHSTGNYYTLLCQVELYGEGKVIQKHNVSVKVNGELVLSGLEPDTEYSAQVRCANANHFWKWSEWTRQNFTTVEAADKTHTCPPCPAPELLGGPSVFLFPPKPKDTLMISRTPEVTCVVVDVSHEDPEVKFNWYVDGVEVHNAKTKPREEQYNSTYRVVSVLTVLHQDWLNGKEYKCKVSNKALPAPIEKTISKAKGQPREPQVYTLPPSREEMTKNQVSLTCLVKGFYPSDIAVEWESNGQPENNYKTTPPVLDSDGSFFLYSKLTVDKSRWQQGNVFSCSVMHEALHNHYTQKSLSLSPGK

One assay concerns the target Canine_OSMR_hlgG1_Fc (canine). Nature of the assay: SPR Biacore. On the technique in general: In SPR one partner is held on a chip, and binding of the other changes the refractive index at the surface.
In the case of B1, the Kd was found to be 18.2 nM, the koff is 0.00105 s⁻¹ and the kon worked out at 57500 M⁻¹ s⁻¹.
Turning to B2, the Kd worked out at 13.3 nM, the koff amounted to 0.000885 s⁻¹ and the kon turned out to be 66500 M⁻¹ s⁻¹.
In turn, B3 registered a Kd of 10 nM, a koff of 0.000851 s⁻¹ and a kon of 85000 M⁻¹ s⁻¹.

The next assay addresses Feline_OSMR_hlgG1_Fc (feline). Nature of the assay: SPR Biacore.
In turn, B4 returned a Kd of 1.37 nM, a koff of 0.00104 s⁻¹ and a kon of 756000 M⁻¹ s⁻¹.
For the molecule B5, the Kd was determined as 6.13 nM, the koff turned out to be 0.0014 s⁻¹ and the kon was determined as 229000 M⁻¹ s⁻¹.
On the same counts, the results for B6 are 0.449 nM, 5.79e-05 s⁻¹ and 129000 M⁻¹ s⁻¹.
B7: the Kd was found to be 0.00211 nM, the koff was 2.31e-07 s⁻¹ and the kon was found to be 109000 M⁻¹ s⁻¹.
In the same order, the values of B8 are 1.13 nM, 0.000463 s⁻¹ and 408000 M⁻¹ s⁻¹.
The molecule B9 had a Kd of 0.000765 nM, a koff of 7.94e-08 s⁻¹ and a kon of 104000 M⁻¹ s⁻¹.
On the same counts, the results for B10 are 7.26 nM, 0.00113 s⁻¹ and 155000 M⁻¹ s⁻¹.
In turn, B11 gave a Kd of 0.000648 nM, a koff of 2.85e-07 s⁻¹ and a kon of 440000 M⁻¹ s⁻¹.
B12 came in with a Kd of 8.05 nM, a koff of 0.00108 s⁻¹ and a kon of 134000 M⁻¹ s⁻¹.
In the same order, the values of B13 are 13.9 nM, 0.00174 s⁻¹ and 125000 M⁻¹ s⁻¹.
On the same counts, the results for B14 are 0.736 nM, 0.000483 s⁻¹ and 656000 M⁻¹ s⁻¹.
On the same counts, the results for B15 are 0.00119 nM, 1.2e-07 s⁻¹ and 100000 M⁻¹ s⁻¹.
As for B16, the Kd was 11.5 nM, the koff came to 0.00194 s⁻¹ and the kon was 169000 M⁻¹ s⁻¹.
In turn, B1 gave a Kd of 7.73 nM, a koff of 0.000979 s⁻¹ and a kon of 127000 M⁻¹ s⁻¹.
In the same order, the values of B2 are 4.75 nM, 0.00061 s⁻¹ and 128000 M⁻¹ s⁻¹.
B3: the Kd was found to be 2.2 nM, the koff was found to be 0.00042 s⁻¹ and the kon came to 191000 M⁻¹ s⁻¹.

In a further assay the target is Feline_OSMR_hlgG1_Fc (feline). Nature of the assay: indirect ELISA, fOSMR coated; OD ratio to antibody expression control.
Sequence of Feline_OSMR_hlgG1_Fc (feline) (chain, as listed by the source limits assumed, form in doubt): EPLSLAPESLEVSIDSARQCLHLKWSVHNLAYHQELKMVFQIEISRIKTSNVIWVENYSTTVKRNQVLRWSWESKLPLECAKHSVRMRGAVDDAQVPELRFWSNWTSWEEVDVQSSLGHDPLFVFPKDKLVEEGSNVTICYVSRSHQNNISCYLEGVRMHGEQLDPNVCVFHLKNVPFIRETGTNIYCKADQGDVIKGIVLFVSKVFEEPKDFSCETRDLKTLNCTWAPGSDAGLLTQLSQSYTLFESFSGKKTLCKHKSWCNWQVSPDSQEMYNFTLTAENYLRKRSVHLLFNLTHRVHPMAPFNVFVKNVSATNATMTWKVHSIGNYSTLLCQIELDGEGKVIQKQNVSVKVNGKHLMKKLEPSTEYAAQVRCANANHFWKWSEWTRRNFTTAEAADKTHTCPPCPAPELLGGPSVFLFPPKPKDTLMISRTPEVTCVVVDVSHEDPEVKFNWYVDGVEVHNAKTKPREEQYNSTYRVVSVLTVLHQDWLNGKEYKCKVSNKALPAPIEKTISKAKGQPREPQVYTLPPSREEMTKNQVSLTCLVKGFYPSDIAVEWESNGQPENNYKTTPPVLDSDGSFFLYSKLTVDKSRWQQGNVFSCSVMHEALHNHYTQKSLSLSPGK
Regarding B17, the ELISA ratio was 0.277 OD ratio.
As for B18, the ELISA ratio was 0.479 OD ratio.
Still for that read-out and setting: next, B19: 0.057 OD ratio; B4: 1.05 OD ratio.
Same read-out and setting: the result for B20 reads 0.011 OD ratio.
For B21, the ELISA ratio came to 0 OD ratio.
As for B22, the ELISA ratio was found to be 0 OD ratio.
On to B23, for which the ELISA ratio was 0 OD ratio.
On to B24, for which the ELISA ratio came to 0.015 OD ratio.
With B25, the ELISA ratio is 0.183 OD ratio.
On the same count and under the same terms, the result for B5 reads 0.158 OD ratio; that for B6, 0 OD ratio; that for B7, 0.01 OD ratio.
With B8, the ELISA ratio stood at 0 OD ratio.
Take B9: the ELISA ratio amounted to 0 OD ratio.
Regarding B10, the ELISA ratio was 0.377 OD ratio.
For the molecule B11, the ELISA ratio turned out to be 1.27 OD ratio.
Consider B12, for which the ELISA ratio worked out at 0.03 OD ratio.
Same read-out and setting: the result for B13 reads 0.058 OD ratio; that for B14, 0.001 OD ratio.
Same read-out and setting: the result for B15 reads 0.009 OD ratio.
Same read-out and setting: next, B16: 0.32 OD ratio.

The term Kd denotes the free concentration of one partner at which half of the binding sites on the other are occupied at equilibrium, for simple one-to-one binding. The term koff denotes the rate constant with which the complex falls apart. Lower therefore signals a long-lived complex. A word on the kon: it is the rate constant with which the complex forms. A low value points to slow association.
